Laboratory results taken from patent US20200306375A1 (ALETA BIOTHERAPEUTICS, published 2020).

Biological target: T1, FMC63 CAR-Flag (construct #140)
T1 construct: also called CAR19; CD19 CAR construct
Assay: flow cytometry on 293T cells transfected with construct #140; anti-mouse Fc gamma-PE detection
Method: Cells transfected with construct #140 (SEQ ID NO: 317) (2.5×10\hat{ }5 in 50 ul) were incubated with 50 u1 sup or purified (5 ug/ml as final conc.) protein of constructs#151/#152 (SEQ ID NO: 319/ SEQ ID NO: 320) for 30 min at 4° C., spun and washed twice with FACS buffer. This was followed by another incubation with anti-mouse Fc gamma-PE for 30 min at 4° C. Cells were spun and washed as above, and fixed with 1% PFA in PBS. Fixed cells were analyzed on Accuri 6 for CAR expression binding (PE positive).

T1 sequence (chain, as listed by the source): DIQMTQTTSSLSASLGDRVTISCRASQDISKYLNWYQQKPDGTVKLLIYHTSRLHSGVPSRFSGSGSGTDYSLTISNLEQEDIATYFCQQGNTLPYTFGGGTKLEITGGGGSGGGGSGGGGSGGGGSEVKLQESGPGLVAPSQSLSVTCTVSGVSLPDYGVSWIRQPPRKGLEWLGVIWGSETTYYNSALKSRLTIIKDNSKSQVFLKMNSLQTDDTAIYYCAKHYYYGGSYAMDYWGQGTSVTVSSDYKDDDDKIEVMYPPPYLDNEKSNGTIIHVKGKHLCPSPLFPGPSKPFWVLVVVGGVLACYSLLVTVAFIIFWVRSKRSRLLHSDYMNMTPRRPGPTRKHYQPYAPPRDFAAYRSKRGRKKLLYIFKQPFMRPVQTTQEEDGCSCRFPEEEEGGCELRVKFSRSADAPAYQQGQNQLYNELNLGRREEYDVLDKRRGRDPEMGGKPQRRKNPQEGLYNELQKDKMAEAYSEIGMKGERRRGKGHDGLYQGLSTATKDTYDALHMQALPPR

- binding result: binds
B1: anti-FMC63 antibody, 136.20.1 (antibody, mouse IgG2a, kappa, V domains shown)
VH: EVKLVESGGGLVQPGGSLKLSCAASGFDFSRYWMSWVRQAPGKGLEWIGEINLDSSTINYTPSLKDKFIISRDNAKNTLYLQMSKVRSEDTALYYCARRYDAMDYWGQGTSVTVSS
VL: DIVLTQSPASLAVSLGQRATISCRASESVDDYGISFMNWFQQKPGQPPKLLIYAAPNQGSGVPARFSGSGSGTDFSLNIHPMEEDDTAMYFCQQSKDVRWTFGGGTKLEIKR
notes: also called anti-FMC63 (anti-Id) antibody; constructs #151/#152
